From paper PMC10053325

Target: T1, GST-SMAD4^R361H, Q13485
T1 chain: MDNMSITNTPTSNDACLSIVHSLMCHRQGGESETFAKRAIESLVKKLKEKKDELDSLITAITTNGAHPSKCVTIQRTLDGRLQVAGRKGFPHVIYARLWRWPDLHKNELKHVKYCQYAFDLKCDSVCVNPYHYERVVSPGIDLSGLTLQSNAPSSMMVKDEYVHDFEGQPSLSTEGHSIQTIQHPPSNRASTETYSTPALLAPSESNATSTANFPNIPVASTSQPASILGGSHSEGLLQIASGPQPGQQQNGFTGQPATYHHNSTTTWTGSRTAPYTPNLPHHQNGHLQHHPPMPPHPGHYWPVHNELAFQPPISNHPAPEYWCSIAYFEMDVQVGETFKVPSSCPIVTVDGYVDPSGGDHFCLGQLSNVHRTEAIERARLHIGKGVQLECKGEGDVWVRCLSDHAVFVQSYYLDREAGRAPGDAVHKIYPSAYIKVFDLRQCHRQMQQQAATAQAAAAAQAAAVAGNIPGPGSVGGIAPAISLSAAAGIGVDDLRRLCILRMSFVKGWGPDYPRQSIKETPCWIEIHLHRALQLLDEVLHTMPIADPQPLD
Test: pull-down
Settings: remark: other sources report otherwise

B1: Venus-flag-SMAD3, P84022 1-425 (natural protein)
chain: MSSILPFTPPIVKRLLGWKKGEQNGQEEKWCEKAVKSLVKKLKKTGQLDELEKAITTQNVNTKCITIPRSLDGRLQVSHRKGLPHVIYCRLWRWPDLHSHHELRAMELCEFAFNMKKDEVCVNPYHYQRVETPVLPPVLVPRHTEIPAEFPPLDDYSHSIPENTNFPAGIEPQSNIPETPPPGYLSEDGETSDHQMNHSMDAGSPNLSPNPMSPAHNNLDLQPVTYCEPAFWCSISYYELNQRVGETFHASQPSMTVDGFTDPSNSERFCLGLLSNVNRNAAVELTRRHIGRGVRLYYIGGEVFAECLSDSAIFVQSPNCNQRYGWHPATVCKIPPGCNLKIFNNQEFAALLAQSVNQGFEAVYQLTRMCTIRMSFVKGWGAEYRRQTVTSTPCWIELHLNGPLQWLDKVLTQMGSPSIRCSSVS
EC50 of Go-6983 in enhancing the complex: 8.9 µM
EC50 of Ro-31-8220 in enhancing the complex: 2.1 µM
